Assay results taken from US20260049151A1 (SHENGHE CHINA BIOPHARMACEUTICAL, published 2026).
Read-outs that look alike come from different tables or passages of the source.

Columns and labels:
Human-TNFR2-His [1] = target: T1, Human-TNFR2-His (human, UniProt P20333 23-257); assay: BLI, antibody on AHC sensor, 100 nM TNFR2-His in solution
T1 construct: Bought protein; also called human TNFR2 protein; TNFR2 protein; not shown: His tag
T1 sequence (looked up): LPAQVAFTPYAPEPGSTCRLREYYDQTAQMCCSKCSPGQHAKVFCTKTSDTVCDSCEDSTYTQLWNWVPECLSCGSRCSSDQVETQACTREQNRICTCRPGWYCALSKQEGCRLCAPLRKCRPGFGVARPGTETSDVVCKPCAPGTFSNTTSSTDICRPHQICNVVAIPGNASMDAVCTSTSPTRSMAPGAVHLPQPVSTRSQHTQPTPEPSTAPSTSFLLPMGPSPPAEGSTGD
Method: The AHC sensor was soaked in 0.02% PBST (0.02% Tween 20, pH 7.4, 1×PBS) as a buffer for 600 s to remove the sucrose covering the sensor surface. The AHC sensor was equilibrated with 0.02% PBST (0.02% Tween 20, pH 7.4, 1×PBS) as a buffer for 60 s, the antibody in the sample plate was solidified for 300 s, and the secondary equilibration buffer was used for 180 s. 100 nM human-TNFR2-His (manufacturer: SINO, CAT: 10417-H08H, LOT: LC15NO0412) protein was bound to the antibody for 300 s and then dissociated for 600 s. After dissociation, 10 mM glycine (pH 2.0) was used as a regeneration buffer for 30 s. The sensor was regenerated with 10 mM glycine (pH 2.0).

Human-TNFR2-His [2] = target: T1, Human-TNFR2-His; assay: ELISA: Human-TNFR2-His coated (0.1 ug/mL), antibody titrated, goat anti-human IgG Fc detection (Example 2)
Human-TNFR2-His [3] = target: T1, Human-TNFR2-His; assay: as above; remark: listed apart in the source
Method: (§1) Human-TNFR2-His (manufacturer: SINO, CAT: 10417-H08H, LOT: LC15NO0412) was diluted to 0.1 μg/mL with a coating solution (1×PBS, pH7.4), and coated in 96-well ELISA plate at 100 µL/well overnight at 4° C. The coating solution was poured off. Each well was washed with 1×PBST at 300 μL, washed 4 times with a plate washer, and patted dry on a flat paper. It was blocked with 3% skim milk powder at 300 μL/well, and incubated at 37° C. for 1 h. The blocking solution was poured off, washed 4 times with a plate washer, and patted dry on a flat paper. Negative control and positive control were set up. […] The positive control and antibody were diluted to 10 μg/mL with 3% skim milk powder as the starting concentration, and then diluted by 3-fold gradient (11 gradients in total), and a blank well was set up and only the diluent was added. It was incubated at 37° C. for 1 h at 100 μL/well. The liquid in the well was discarded, washed 4 times with a plate washer, and patted dry on a flat paper. Goat anti-human IgG Fc was diluted with 3% skim milk powder at 1:10000, and incubated at 37° C. for 1 h at 100 μL/well. It was washed 6 times with a plate washer, and patted dry on a flat paper. TMB color developing solution was added at 100 μL/well, and wrapped with aluminum foil. Color development was performed at 37° C. in the dark for 8 min. Termination solution 1M HCl was added to terminate the color development reaction at 100 μL/well. Readings were taken at 450 nm on an ELISA reader.

Human 4-1BB His [4] = target: T2, Human 4-1BB His (human, UniProt Q07011 24-186); assay: ELISA: Human 4-1BB His coated (0.2 ug/mL), antibody titrated, goat anti-human IgG Fc detection (Example 3)
T2 construct: Bought protein; lots 198-2146F1-W6 and 2407c-214FF1-YC; also called human 4-1BB protein; 4-1BB protein; not shown: His tag

Human 4-1BB His [5] = target: T2, Human 4-1BB His; assay: as above; remark: listed apart in the source
Method: (§2) Human 4-1BB His (manufacturer: Acro, CAT: 41B-H5258, LOT: 198-2146F1-W6) was diluted to 0.2 μg/mL with a coating solution (1×PBS, pH7.4), and coated in 96-well ELISA plate at 100 μL/well overnight at 4° C. The coating solution was poured off. Each well was washed with 1×PBST at 300 μL, washed 4 times with a plate washer, and patted dry on a flat paper. It was blocked with 3% skim milk powder at 300 μL/well, and incubated at 37° C. for 1 h. The blocking solution was poured off, washed 4 times with a plate washer, and patted dry on a flat paper. Negative control and positive control were set up. […] The variable region of the antibody sequence of the positive control consists of SEQ ID NO: 15 and SEQ ID NO: 19, with the addition of the constant region of human IgG1 (SEQ ID NO: 46 and SEQ ID NO: 47). The positive control and antibody were diluted to 10 μg/mL with 3% skim milk powder as the starting concentration, and then diluted by 3-fold gradient (11 gradients in total), and a blank well was set up and only the diluent was added. It was incubated at 37° C. for 1 h at 100 μL/well. The liquid in the well was discarded, washed 4 times with a plate washer, and patted dry on a flat paper. Goat anti-human IgG Fc was diluted with 3% skim milk powder at 1:20000, and incubated at 37° C. for 1 h at 100 μL/well. It was washed 6 times with a plate washer, and patted dry on a flat paper. TMB color developing solution was added at 100 μL/well, and wrapped with aluminum foil. Color development was performed at 37° C. in the dark for 8 min. Termination solution 1M HCl was added to terminate the color development reaction at 100 μL/well. Readings were taken at 450 nm on an ELISA reader.

Human-TNFR2-His [6] = target: T1, Human-TNFR2-His; assay: ELISA: Human-TNFR2-His coated (0.1 ug/mL), antibody titrated, goat anti-human IgG Fc detection (Example 2); remark: listed apart in the source
Method: as §1

Human 4-1BB His [7] = target: T2, Human 4-1BB His; assay: ELISA: Human 4-1BB His coated (0.2 ug/mL), antibody titrated, goat anti-human IgG Fc detection (Example 3); remark: listed apart in the source
Method: as §2

Human-TNFR2-His [8] = target: T1, Human-TNFR2-His; assay: ELISA: Human-TNFR2-His coated (0.1 ug/mL), antibody titrated, goat anti-human IgG Fc detection (Example 2); remark: listed apart in the source
Method: as §1

T2 sequence (Q07011 24-186 limits assumed): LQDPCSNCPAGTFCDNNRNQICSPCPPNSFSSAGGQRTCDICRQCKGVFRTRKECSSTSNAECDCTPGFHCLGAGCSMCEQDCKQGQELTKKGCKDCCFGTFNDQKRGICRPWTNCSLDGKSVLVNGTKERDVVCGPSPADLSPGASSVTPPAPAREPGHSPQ

Binder	Kd (Human-TNFR2-His [1])	koff (Human-TNFR2-His [1])	kon (Human-TNFR2-His [1])	EC50 (read off the curve) (Human-TNFR2-His [2])	EC50 (read off the curve) (Human-TNFR2-His [3])	EC50 (read off the curve) (Human 4-1BB His [4])	EC50 (read off the curve) (Human 4-1BB His [5])	EC50 (read off the curve) (Human-TNFR2-His [6])	EC50 (read off the curve) (Human 4-1BB His [7])	EC50 (read off the curve) (Human-TNFR2-His [8])
Antibody E1 (bispecific antibody, human IgG1, kappa, IgG1 subtype; full-length TNFR2 antibody with 4-1BB scFv at the C-terminus of the heavy chains) light: DIVMTQSPATLSVSPGERATLSCKASQNVGSNVDWYQQKPGQSPRVLIYKASIRYTGIPARFSGSGSGTEFTLTISILQSEDFAVYFCMQSKSYPITFGQGTKLEIKRTVAAPSVFIFPPSDEQLKSGTASVVCLLNNFYPREAKVQWKVDNALQSGNSQESVTEQDSKDSTYSLSSTLTLSKADYEKHKVYACEVTHQGLSSPVTKSFNRGEC heavy: not shown	0.207 nM	8.04e-05 s⁻¹	389000 M⁻¹ s⁻¹	~0.09 nM	~0.09 nM	~0.2 nM	–	–	–	–
Antibody J1 (bispecific antibody, human IgG1, kappa, IgG1 subtype; full-length 4-1BB antibody with TNFR2 VHH at the C-terminus of the heavy chains) light: DIQMTQSPSSLSASLGDRVTISCSASQGISNYLNWYQQKPDGTVKLLIYYTSTLHSGVPSRFSGSGSGTDYTLTISSLQPEDIATYYCQQYSKLPWTFGGGTKLEIKRTVAAPSVFIFPPSDEQLKSGTASVVCLLNNFYPREAKVQWKVDNALQSGNSQESVTEQDSKDSTYSLSSTLTLSKADYEKHKVYACEVTHQGLSSPVTKSFNRGEC heavy: not shown	1.82 nM	0.000394 s⁻¹	217000 M⁻¹ s⁻¹	~0.2 nM	–	–	~0.09 nM	–	–	–
Antibody M1 (bispecific antibody, human IgG1, kappa, IgG1 subtype; full-length 4-1BB antibody with TNFR2 VHH at the N-terminus of the heavy chains) light: DIQMTQSPSSLSASLGDRVTISCSASQGISNYLNWYQQKPDGTVKLLIYYTSTLHSGVPSRFSGSGSGTDYTLTISSLQPEDIATYYCQQYSKLPWTFGGGTKLEIKRTVAAPSVFIFPPSDEQLKSGTASVVCLLNNFYPREAKVQWKVDNALQSGNSQESVTEQDSKDSTYSLSSTLTLSKADYEKHKVYACEVTHQGLSSPVTKSFNRGEC heavy: not shown	1.28 nM	0.000394 s⁻¹	308000 M⁻¹ s⁻¹	–	–	–	–	~0.04 nM	~0.09 nM	–
Antibody H (bispecific antibody, human IgG1, kappa, IgG1 subtype; full-length TNFR2 antibody with 4-1BB scFv at the N-terminus of the light chains) light: QVQLQESGPGLVKPSETLSLTCTVSGSSLTSYGVHWVRQPPGKCLEGLGVIWPGGSTNYNSALMSRVTISKDNSKSQVSLKMSSLTAADTAVYYCARVTGTWYFDVWGQGTTVTVSSGGGGSGGGGSGGGGSDIQMTQSPSSLSASLGDRVTISCSASQGISNYLNWYQQKPDGTVKLLIYYTSTLHSGVPSRFSGSGSGTDYTLTISSLQPEDIATYYCQQYSKLPWTFGCGTKLEIKGGGGSGGGGSGGGGSDIVMTQSPATLSVSPGERATLSCKASQNVGSNVDWYQQKPGQSPRVLIYKASIRYTGIPARFSGSGSGTEFTLTISILQSEDFAVYFCMQSKSYPITFGQGTKLEIKRTVAAPSVFIFPPSDEQLKSGTASVVCLLNNFYPREAKVQWKVDNALQSGNSQESVTEQDSKDSTYSLSSTLTLSKADYEKHKVYACEVTHQGLSSPVTKSFNRGEC heavy: not shown	0.241 nM	6.64e-05 s⁻¹	276000 M⁻¹ s⁻¹	–	–	–	~0.06 nM	–	–	~0.08 nM
